Measurements published in publication PMC10500059, “Allosteric activation of RhlB by RNase E induces partial duplex opening in substrate RNA” (Frontiers in Molecular Biosciences, 2023).

What was measured:
[1] = target: T1, RhlB (E. coli DEAD-box RNA helicase), wild type (E. coli) (UniProt P0A8J8)
T1 sequence: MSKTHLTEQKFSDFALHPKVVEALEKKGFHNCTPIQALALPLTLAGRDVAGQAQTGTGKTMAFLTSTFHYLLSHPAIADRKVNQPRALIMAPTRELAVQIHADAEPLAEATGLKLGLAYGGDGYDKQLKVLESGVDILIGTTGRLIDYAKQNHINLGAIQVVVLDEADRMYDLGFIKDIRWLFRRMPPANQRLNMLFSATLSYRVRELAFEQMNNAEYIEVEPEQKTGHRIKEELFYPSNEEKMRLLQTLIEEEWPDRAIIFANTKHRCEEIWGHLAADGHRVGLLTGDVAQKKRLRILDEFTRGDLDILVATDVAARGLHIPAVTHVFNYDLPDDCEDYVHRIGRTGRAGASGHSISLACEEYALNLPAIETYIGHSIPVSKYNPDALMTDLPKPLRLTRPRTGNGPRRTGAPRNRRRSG

[2] = target: T1, RhlB (E. coli DEAD-box RNA helicase), wild type (E. coli); remark: listed apart in the source
[3] = target: T2, RhlB (Escherichia coli, UniProt P0A8J8 1-421); assay: NMR (1H imino titration); no ATP; 4.5 mM Mg2+; NMR: 150 mM KCl, 25 mM Tris/HCl, 5 mM DTT, 4.5 mM MgCl2, pH 8.3, 288 K, 100 µM RNA; EMSA: 150 mM NaCl, 25 mM Tris, 1.5 mM MgCl2, 5 mM DTT, 10% glycerol, pH 8.3, 4 C, 1.5 µM RNA; conditions: protein: recombinant, tags: C-terminal TEV site (ENLYFQG) + 6xHis, His-tag removed by TEV, site remnant left
T2 sequence: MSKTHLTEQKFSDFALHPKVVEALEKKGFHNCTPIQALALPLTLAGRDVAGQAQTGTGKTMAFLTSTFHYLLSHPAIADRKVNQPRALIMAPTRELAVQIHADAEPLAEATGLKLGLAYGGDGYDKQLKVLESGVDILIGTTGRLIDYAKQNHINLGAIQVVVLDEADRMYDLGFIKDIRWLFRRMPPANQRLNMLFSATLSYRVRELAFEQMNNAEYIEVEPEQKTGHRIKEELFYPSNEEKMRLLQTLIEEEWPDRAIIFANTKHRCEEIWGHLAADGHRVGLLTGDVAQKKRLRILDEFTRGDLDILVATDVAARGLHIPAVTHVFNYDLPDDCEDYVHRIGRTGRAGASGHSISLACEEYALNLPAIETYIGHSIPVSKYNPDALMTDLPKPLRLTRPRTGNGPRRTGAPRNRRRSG

[4] = target: T3, RhlB (E. coli DEAD-box RNA helicase), wild type (E. coli, UniProt P0A8J8 1-421); assay: cell-based or functional assay
T3 sequence (looked up): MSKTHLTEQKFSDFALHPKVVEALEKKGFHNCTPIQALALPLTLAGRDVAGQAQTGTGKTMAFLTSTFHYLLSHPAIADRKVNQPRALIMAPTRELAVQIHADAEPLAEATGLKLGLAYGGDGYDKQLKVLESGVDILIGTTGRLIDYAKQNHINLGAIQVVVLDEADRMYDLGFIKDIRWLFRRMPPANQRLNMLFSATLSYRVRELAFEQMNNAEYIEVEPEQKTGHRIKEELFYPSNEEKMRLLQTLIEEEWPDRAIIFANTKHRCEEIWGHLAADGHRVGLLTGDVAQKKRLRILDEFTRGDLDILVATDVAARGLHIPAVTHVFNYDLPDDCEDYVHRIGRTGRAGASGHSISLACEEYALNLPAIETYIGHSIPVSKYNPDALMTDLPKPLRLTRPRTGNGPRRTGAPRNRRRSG

[5] = target: RhlB;RNase E (694-790) (Escherichia coli;Escherichia coli, UniProt P0A8J8;P21513 1-421;694-790, |); assay: NMR (1H imino titration); no ATP; 4.5 mM Mg2+; NMR: 150 mM KCl, 25 mM Tris/HCl, 5 mM DTT, 4.5 mM MgCl2, pH 8.3, 288 K, 100 µM RNA; EMSA: 150 mM NaCl, 25 mM Tris, 1.5 mM MgCl2, 5 mM DTT, 10% glycerol, pH 8.3, 4 C, 1.5 µM RNA; conditions: protein: recombinant;recombinant, tags: C-terminal TEV site (ENLYFQG) + 6xHis, His-tag removed by TEV, site remnant left;N-terminal 6xHis-TEV, purified analogously (tag cleaved), copies: 1;1
[6] = label: none (titration), 3' overhang 8 nt
[7] = label: none (titration), single strand, two weak base pairs under NMR conditions

“RNase E (628-843) (from UniProt P21513 628-843) (domain or fragment)” was tested, and the ATP turnover rate of RhlB (EnzChek phosphate assay, 2.4 uM RhlB and RNase E fragment, 6 uM RNA substrates of different topology), fold increase over RhlB alone [1] was < 27 fold, the ATP turnover of RhlB with 5'-OV RNA, activation factor over RhlB alone, 31P real-time NMR experiment (400 uM RhlB/RNase E 1:1, 100 uM RNA) [2] was 2 fold and the ATP turnover of RhlB with 5'-OV RNA, activation factor over RhlB alone, phosphate assay [2] was 10 fold.

B1: Blunt duplex 21 nt (dsRNA)
RNA 1: UAGUAACUAAAACAUUAAAUU
RNA 2: AAUUUAAUGUUUUAGUUACUA
For B1, the Kd ([3]; label: none, blunt) was 162 ± 30.3 µM.

B2: RNase E (694-790) (domain or fragment, E. coli, UniProt P21513 694-790, looked up)
chain: AKALNVEEQSVQETEQEERVRPVQPRRKQRQLNQKVRYEQSVAEEAVVAPVVEETVAAEPIVQEAPAPRTELVKVPLPVVAQTAPEQQEENNADNRD
With B2 the “ATP turnover rate of RhlB (EnzChek phosphate assay, 2.4 uM RhlB and RNase E fragment, 6 uM RNA substrates of different topology), fold increase over RhlB alone” value [4] was ≤ 6 fold.

B3: 3'-OV duplex (dsRNA)
RNA 1: UAGUAACUAAAACAUUAAAUU
RNA 2: GUUUUAGUUACUA
With B3 the Kd [5, 6] was 82.3 ± 27.3 µM and the Kd [3, 6] was 216 ± 33.7 µM.

B4: Blunt duplex 13 nt (dsRNA)
RNA 1: UAGUAACUAAAAC
RNA 2: GUUUUAGUUACUA
B4 showed a Kd ([5]; label: none, blunt) of 488 ± 40.5 µM and a Kd ([3]; label: none, blunt) of 155 ± 33.7 µM.

B5: 21 nt single strand (ssRNA)
RNA: UAGUAACUAAAACAUUAAAUU
With B5 the Kd [5, 7] was 264.5 ± 1 µM and the Kd [3, 7] was 94.9 ± 59.2 µM.
